Values quoted from earlier work as cited in PMC6995517.

Target: transferrin receptor (TfR) (Homo sapiens) (UniProt P02786)
Sequence (P02786 89-760): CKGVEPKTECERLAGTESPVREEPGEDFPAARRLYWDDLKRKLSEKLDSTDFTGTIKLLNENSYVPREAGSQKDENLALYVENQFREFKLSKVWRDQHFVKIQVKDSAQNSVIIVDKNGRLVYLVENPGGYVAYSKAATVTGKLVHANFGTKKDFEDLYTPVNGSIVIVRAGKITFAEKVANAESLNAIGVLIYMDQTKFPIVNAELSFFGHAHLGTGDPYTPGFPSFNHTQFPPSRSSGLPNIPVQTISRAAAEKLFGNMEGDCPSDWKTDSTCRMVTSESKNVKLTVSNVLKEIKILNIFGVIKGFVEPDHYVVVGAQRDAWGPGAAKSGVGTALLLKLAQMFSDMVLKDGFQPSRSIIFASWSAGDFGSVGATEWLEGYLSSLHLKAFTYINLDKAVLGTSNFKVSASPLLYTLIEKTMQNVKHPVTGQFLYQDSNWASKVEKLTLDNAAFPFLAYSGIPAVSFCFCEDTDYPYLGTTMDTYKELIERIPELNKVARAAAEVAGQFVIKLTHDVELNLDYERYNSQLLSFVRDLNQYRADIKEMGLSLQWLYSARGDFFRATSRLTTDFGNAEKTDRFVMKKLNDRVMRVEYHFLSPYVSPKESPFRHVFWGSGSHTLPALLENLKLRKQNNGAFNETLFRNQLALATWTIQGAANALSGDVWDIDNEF

- Kd: 0.01 µM
Substance: T7 peptide
